The series addresses AtPHR1 MYB-CC (Arabidopsis thaliana, UniProt Q94CL7 222-358). Nature of the series: GCI; 4 C, 300 mM NaCl; GCI at 4 C: AtPHR1 in 20 mM HEPES pH 7.5, 300 mM NaCl; OsPHR2 in 20 mM HEPES pH 7.9, 200 mM NaCl. EMSA: LI-COR Odyssey kit buffer without optional components, 50 nM oligo, 30 min at room temperature, 5% TBE gel in 0.5x TBE. The note with it: protein: recombinant; tags: His6 N-terminal, TEV-cleaved (untagged); chain copies: 2; label: 5'-biotin on strand 1; blunt.

Chain of AtPHR1 MYB-CC (Q94CL7 222-358): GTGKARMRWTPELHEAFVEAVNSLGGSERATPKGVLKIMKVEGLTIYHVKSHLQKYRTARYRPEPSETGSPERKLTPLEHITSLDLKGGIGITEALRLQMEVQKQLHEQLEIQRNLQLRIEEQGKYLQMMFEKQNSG

B1: pAtSPX1 biotin (dsDNA)
DNA 1: CAGAGAAAAAAGGATATTCTAATTAGAAACCTTAAGAATATTCTTTTTAATCCC
DNA 2: GGGATTAAAAAGAATATTCTTAAGGTTTCTAATTAGAATATCCTTTTTTCTCTG
For orientation: Kd means the equilibrium constant for the complex coming apart. With B1, the Kd is approximately 200 nM.

The record behind these values is PMC7810988, “Inositol pyrophosphates promote the interaction of SPX domains with the coiled-coil motif of PHR transcription factors to regulate plant phosphate homeostasis”.
